# Measurements from the supplement of paper PMC7877785.
# ± gives the uncertainty stated by the source.
# Test: self-splicing fitness, log relative to wild type (ln ratio); higher = more splicing; Tetrahymena group I intron in knt gene, E. coli kanamycin selection, DiMSum; sequences stand for … in CUCUCU…GGAGGGAAAAGUUAUCAGGCAUGCACCUGGUAGCUAGUCUUUAAACCAAUAGAUUGCAUCGGUUUAAAAGGCAAGACCGUCAAAUUGCGGGAAAGGGGUCAACAGCCGUUCAGUACCAAGUCUCAGGGGAAACUUUGAGAUGGCCUUGCAAAGGGUAUGGUAAUAAGCUGACGGACAUGGUCCUAACCACGCAGCCAAGUCCUAAGUCAACAGAUCUUCUGUUGAUAUGGAUGCAGUUCACAGACUAAAUGUCGGUCGGGGAAGAUGUAUUCUUCUCAUAAGAUAUAGUCGGACCUCUCCUUAAUGGGAGCUAGCGGAUGAAGUGAUGCAACACUGGAGCCGCUGGGAACUAAUUUGUAUGCGAAAGUAUAUUGAUUAGUUUUGGAGUACUCGUGGUCG
# In short: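 Library with all eight P1ex-region intron nucleotides randomised, intron inside the knt kanamycin-resistance gene on pET-22b(+), in E. coli BL21(DE3). Cells grew overnight at 37°C or 30°C on LB agar with or without 25 μg/mL kanamycin (plus 100 μg/mL carbenicillin, 50 μM IPTG, 0.2% rhamnose), in six replicate transformations. Pooled colonies were amplicon-sequenced on Illumina HiSeq 2500. DiMSum fitness is the error-weighted combination of wild-type-normalised replicate fold changes, kanamycin versus none.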
Sequence,self-splicing fitness (ln) (37 °C),self-splicing fitness (ln) (30 °C)
GUUUAGCAAUAUUACGAACU,-2.69 ± 0.44,
GUUUAGCAAUAUUACGACGU,0.347 ± 0.14,-0.531 ± 0.1
GUUUAGCAAUAUUACGAGCG,-0.465 ± 0.12,-1.6 ± 0.12
GUUUAGCAAUAUUACGAGUC,-0.725 ± 0.21,
GUUUAGCAAUAUUACGAUCA,-0.619 ± 0.16,-1.38 ± 0.31
GUUUAGCAAUAUUACGCACA,-0.0205 ± 0.14,-0.867 ± 0.12
GUUUAGCAAUAUUACGCAUA,-1.19 ± 0.19,-1.69 ± 0.18
GUUUAGCAAUAUUACGCAUC,-1.04 ± 0.19,-1.28 ± 0.14
GUUUAGCAAUAUUACGCCCG,-1.18 ± 0.24,-3.02 ± 0.24
GUUUAGCAAUAUUACGCGUC,-0.647 ± 0.24,-1.79 ± 0.24
GUUUAGCAAUAUUACGCGUU,-0.943 ± 0.2,-1.75 ± 0.16
GUUUAGCAAUAUUACGCUCU,-0.764 ± 0.11,-0.694 ± 0.091
GUUUAGCAAUAUUACGCUUA,-0.129 ± 0.12,-1.24 ± 0.15
GUUUAGCAAUAUUACGCUUU,-0.513 ± 0.22,-2.38 ± 0.25
GUUUAGCAAUAUUACGGAAU,-1.26 ± 0.31,-2.56 ± 0.31
GUUUAGCAAUAUUACGGCAG,-1.66 ± 0.38,-2.12 ± 0.26
GUUUAGCAAUAUUACGGCCU,0.714 ± 0.15,-0.716 ± 0.15
GUUUAGCAAUAUUACGGCUG,-0.169 ± 0.17,-1.79 ± 0.1
GUUUAGCAAUAUUACGGGCA,-0.96 ± 0.15,-1.85 ± 0.17
GUUUAGCAAUAUUACGGGCU,-0.606 ± 0.2,-3.45 ± 0.34
GUUUAGCAAUAUUACGGGGU,-2.29 ± 0.2,-3.3 ± 0.35
GUUUAGCAAUAUUACGGGUA,-1.61 ± 0.17,-3 ± 0.24
GUUUAGCAAUAUUACGUAAG,0.076 ± 0.15,-0.762 ± 0.085
GUUUAGCAAUAUUACGUCGC,-0.462 ± 0.18,-1.67 ± 0.16
GUUUAGCAAUAUUACGUGCU,-1.31 ± 0.17,-2.18 ± 0.16

Sequence,self-splicing fitness (ln) (37 °C),self-splicing fitness (ln) (30 °C)
GUUUAGCAAUAUUACGUGGG,-2.45 ± 0.23,-3.78 ± 0.37
GUUUAGCAAUAUUACGUGGU,-1.23 ± 0.44,
UAAAAGCAAUAUUACGAGAU,-2.98 ± 0.2,-3.14 ± 0.13
UAAAAGCAAUAUUACGAUUU,-0.59 ± 0.11,-1.36 ± 0.11
UAAAAGCAAUAUUACGCAAC,-2.13 ± 0.21,-4.54 ± 0.34
UAAAAGCAAUAUUACGCAUC,-2.36 ± 0.21,-2.95 ± 0.15
UAAAAGCAAUAUUACGCCCG,0.323 ± 0.23,-0.0582 ± 0.21
UAAAAGCAAUAUUACGCCUC,,-2.82 ± 0.43
UAAAAGCAAUAUUACGGAAG,-0.624 ± 0.15,-2.03 ± 0.15
UAAAAGCAAUAUUACGGGCG,0.305 ± 0.076,-0.0526 ± 0.069
UAAAAGCAAUAUUACGGGUC,-2.82 ± 0.27,-3.09 ± 0.25
UAAAAGCAAUAUUACGGGUU,-1.48 ± 0.12,-3.85 ± 0.28
UAAAAGCAAUAUUACGUCCU,0.00684 ± 0.13,-0.564 ± 0.095
UAAAAGCAAUAUUACGUCGU,-2.17 ± 0.11,-3.29 ± 0.13
UAAAAGCAAUAUUACGUCUC,-3 ± 0.17,-3.48 ± 0.17
UAAAAGCAAUAUUACGUGAA,-1.06 ± 0.1,-1.36 ± 0.082
UAAAAGCAAUAUUACGUGAG,-0.622 ± 0.078,-0.888 ± 0.044
UAAAAGCAAUAUUACGUGGU,-2.28 ± 0.14,-3.53 ± 0.13
UAAAAGCAAUAUUACGUUAG,-1.33 ± 0.088,-1.37 ± 0.069
UAAAAGCAAUAUUACGUUCU,-1.13 ± 0.14,-1.87 ± 0.14
UAACAGCAAUAUUACGAAUA,-0.528 ± 0.1,-0.62 ± 0.1
UAACAGCAAUAUUACGAUUG,-0.741 ± 0.082,-1.57 ± 0.056
UAACAGCAAUAUUACGCAAU,-0.816 ± 0.15,-2.89 ± 0.15
UAACAGCAAUAUUACGCCAG,-1.42 ± 0.18,-2.03 ± 0.12
UAACAGCAAUAUUACGCGGC,-2.65 ± 0.35,-3.99 ± 0.28

Sequence,self-splicing fitness (ln) (37 °C),self-splicing fitness (ln) (30 °C)
UAACAGCAAUAUUACGGAGC,-2.58 ± 0.29,
UAACAGCAAUAUUACGGCAU,0.0326 ± 0.093,-1.85 ± 0.093
UAACAGCAAUAUUACGGCGC,-1.44 ± 0.13,-2.5 ± 0.13
UAACAGCAAUAUUACGGGAC,-1.89 ± 0.13,-4.36 ± 0.17
UAACAGCAAUAUUACGGGAU,-2.43 ± 0.16,-3.08 ± 0.15
UAACAGCAAUAUUACGGGCG,0.217 ± 0.087,-0.476 ± 0.064
UAACAGCAAUAUUACGGGGC,-2.86 ± 0.24,-3.63 ± 0.19
UAACAGCAAUAUUACGGUGG,-1.06 ± 0.084,-1.67 ± 0.067
UAACAGCAAUAUUACGUACG,-0.193 ± 0.069,-0.675 ± 0.047
UAACAGCAAUAUUACGUAGA,-1.37 ± 0.086,-2.81 ± 0.071
UAACAGCAAUAUUACGUCAG,-0.0779 ± 0.085,-1.53 ± 0.073
UAACAGCAAUAUUACGUCCC,-1.38 ± 0.27,-2.98 ± 0.34
UAACAGCAAUAUUACGUGUC,-2.35 ± 0.13,-4.05 ± 0.14
UAACAGCAAUAUUACGUGUG,-0.692 ± 0.055,-1.23 ± 0.042
UAACAGCAAUAUUACGUGUU,-2.34 ± 0.12,-3.78 ± 0.14
UAACAGCAAUAUUACGUUAU,-2.96 ± 0.23,-3.22 ± 0.16
UAAGAGCAAUAUUACGAAAG,-1.92 ± 0.23,-3.88 ± 0.31
UAAGAGCAAUAUUACGACCC,,-2.18 ± 0.37
UAAGAGCAAUAUUACGACCG,-2.21 ± 0.25,-2.9 ± 0.35
UAAGAGCAAUAUUACGACCU,,-1.34 ± 0.23
UAAGAGCAAUAUUACGACGC,-2.07 ± 0.43,-2.96 ± 0.32
UAAGAGCAAUAUUACGACUA,0.314 ± 0.11,-0.436 ± 0.11
UAAGAGCAAUAUUACGAUGC,-2.34 ± 0.33,-3.73 ± 0.42
UAAGAGCAAUAUUACGCAAA,-2.44 ± 0.21,-2.38 ± 0.21
UAAGAGCAAUAUUACGCACG,-1.84 ± 0.15,-2.42 ± 0.15

Sequence,self-splicing fitness (ln) (37 °C),self-splicing fitness (ln) (30 °C)
UAAGAGCAAUAUUACGCAGU,-2.38 ± 0.28,
UAAGAGCAAUAUUACGCCUA,-1.41 ± 0.12,-2.03 ± 0.15
UAAGAGCAAUAUUACGCGUG,-1.88 ± 0.13,-2.33 ± 0.13
UAAGAGCAAUAUUACGCUAA,-1.77 ± 0.27,
UAAGAGCAAUAUUACGCUUC,-2.46 ± 0.25,-3.71 ± 0.25
UAAGAGCAAUAUUACGGAAG,,-2.8 ± 0.41
UAAGAGCAAUAUUACGGCCA,-1.48 ± 0.37,-1.81 ± 0.3
UAAGAGCAAUAUUACGGCGC,-2.01 ± 0.41,-2.68 ± 0.32
UAAGAGCAAUAUUACGGCUG,-0.424 ± 0.18,-1.55 ± 0.12
UAAGAGCAAUAUUACGGUGG,-2.36 ± 0.26,-4.17 ± 0.33
UAAGAGCAAUAUUACGGUGU,-3.27 ± 0.47,-2.19 ± 0.14
UAAGAGCAAUAUUACGGUUC,-2.14 ± 0.46,-2.19 ± 0.21
UAAGAGCAAUAUUACGUAUG,-2.47 ± 0.34,-5.26 ± 0.45
UAAGAGCAAUAUUACGUCAU,-2.22 ± 0.24,-2.21 ± 0.14
UAAGAGCAAUAUUACGUCUA,-0.548 ± 0.1,-0.273 ± 0.093
UAAGAGCAAUAUUACGUUAU,,-3.21 ± 0.44
UAAUAGCAAUAUUACGAACC,-2.27 ± 0.39,-3.22 ± 0.49
UAAUAGCAAUAUUACGAAUU,-2.58 ± 0.24,
UAAUAGCAAUAUUACGACGC,,-2.84 ± 0.34
UAAUAGCAAUAUUACGAUUU,-1.13 ± 0.11,-2 ± 0.11
UAAUAGCAAUAUUACGCCAU,-1.55 ± 0.23,-2.36 ± 0.22
UAAUAGCAAUAUUACGCCUG,-0.254 ± 0.16,-0.203 ± 0.13
UAAUAGCAAUAUUACGCCUU,-1 ± 0.14,-3.48 ± 0.21
UAAUAGCAAUAUUACGCGAC,-1.61 ± 0.34,-3.42 ± 0.35
